Laboratory results published in paper PMC4672631 (Biochemistry, 2015).

molecular target: cytochrome f (PetA), spinach (spinach, UniProt P16013 36-320); assay: co-purification with SDS-PAGE densitometry
Sequence (P16013 36-320): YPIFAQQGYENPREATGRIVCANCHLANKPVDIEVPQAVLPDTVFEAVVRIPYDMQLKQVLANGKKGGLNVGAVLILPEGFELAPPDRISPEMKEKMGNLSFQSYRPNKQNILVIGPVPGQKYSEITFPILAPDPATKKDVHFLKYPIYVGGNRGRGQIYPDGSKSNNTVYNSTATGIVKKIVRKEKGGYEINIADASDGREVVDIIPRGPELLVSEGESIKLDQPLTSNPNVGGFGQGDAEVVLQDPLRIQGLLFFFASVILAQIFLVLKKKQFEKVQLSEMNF

Row | stoichiometry N | Binder
1 | 0.96 relative to cyt f | cytochrome b6, spinach (natural protein, UniProt P00165 1-215, looked up) MSKVYDWFEERLEIQAIADDITSKYVPPHVNIFYCLGGITLTCFLVQVATGFAMTFYYRPTVTDAFASVQYIMTEVNFGWLIRSVHRWSASMMVLMMILHVFRVYLTGGFKKPRELTWVTGVVLGVLTASFGVTGYSLPWDQIGYWAVKIVTGVPDAIPVIGSPLVELLRGSASVGQSTLTRFYSLHTFVLPLLTAVFMLMHFLMIRKQGISGPL
2 | 0.85 relative to cyt f | subunit IV, spinach (natural protein, UniProt P00166 1-160, looked up) MGVTKKPDLNDPVLRAKLAKGMGHNYYGEPAWPNDLLYIFPVVILGTIACNVGLAVLEPSMIGEPADPFATPLEILPEWYFFPVFQILRTVPNKLLGVLLMASVPAGLLTVPFLENVNKFQNPFRRPVATTVFLVGTVVALWLGIGATLPIDKSLTLGLF
3 | 0.95 relative to cyt f | iron-sulfur protein (ISP), spinach (natural protein, UniProt P08980 52-230, looked up) ATSIPADNVPDMQKRETLNLLLLGALSLPTGYMLLPYASFFVPPGGGAGTGGTIAKDALGNDVIAAEWLKTHAPGDRTLTQGLKGDPTYLVVESDKTLATFGINAVCTHLGCVVPFNAAENKFICPCHGSQYNNQGRVVRGPAPLSLALAHCDVDDGKVVFVPWTETDFRTGEAPWWSA
